The source of these data is article PMC8487046.

The target in assay [1] is full‐length SREC‐II at the surface of stably transfected CHO cells (UniProt Q96GP6). The experiment in a line: flow cytometry on cells; SREC-II-overexpressing CHO cells against nontransfected CHO cells, on ice, PBS with 3% BSA; C1q 80 µg/mL (40 min, detected with anti-C1q and Cy-3 anti-mouse antibodies); Alexa Fluor 488-MalBSA or Alexa Fluor 568-CRT at 1, 5 and 10 µg/mL (30 min); MFI ratio.

The target of assay [2] is acetylated BSA (AcBSA) (bovine (from the name BSA)) (UniProt P02769). Briefly: SPR; AcBSA immobilized (900 RU, CM5, amine coupling; BSA as reference surface), serially diluted SREC-II(44-442) or SR-F1(20-421) injected; TBS-Ca-P; 20 µL/min; 25 °C; global fit, 1:1 Langmuir model; apparent KD.

Chain of SREC‐II(44‐442), extracellular domain of scavenger receptor expressed by endothelial cells II (Q96GP6 other isoform, or with tags, fused parts or gaps): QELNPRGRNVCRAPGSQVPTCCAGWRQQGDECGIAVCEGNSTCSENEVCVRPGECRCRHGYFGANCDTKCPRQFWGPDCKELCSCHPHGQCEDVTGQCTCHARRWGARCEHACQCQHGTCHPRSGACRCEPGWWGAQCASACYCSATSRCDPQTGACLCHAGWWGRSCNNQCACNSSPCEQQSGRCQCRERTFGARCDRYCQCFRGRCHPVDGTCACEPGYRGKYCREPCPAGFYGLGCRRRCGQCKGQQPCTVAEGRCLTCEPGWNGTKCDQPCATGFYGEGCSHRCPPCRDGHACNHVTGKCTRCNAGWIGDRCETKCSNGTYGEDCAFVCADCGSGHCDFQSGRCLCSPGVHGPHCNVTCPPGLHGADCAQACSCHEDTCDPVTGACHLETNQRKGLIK
Chain of full‐length SREC‐II at the surface of stably transfected CHO cells (Q96GP6 44-871): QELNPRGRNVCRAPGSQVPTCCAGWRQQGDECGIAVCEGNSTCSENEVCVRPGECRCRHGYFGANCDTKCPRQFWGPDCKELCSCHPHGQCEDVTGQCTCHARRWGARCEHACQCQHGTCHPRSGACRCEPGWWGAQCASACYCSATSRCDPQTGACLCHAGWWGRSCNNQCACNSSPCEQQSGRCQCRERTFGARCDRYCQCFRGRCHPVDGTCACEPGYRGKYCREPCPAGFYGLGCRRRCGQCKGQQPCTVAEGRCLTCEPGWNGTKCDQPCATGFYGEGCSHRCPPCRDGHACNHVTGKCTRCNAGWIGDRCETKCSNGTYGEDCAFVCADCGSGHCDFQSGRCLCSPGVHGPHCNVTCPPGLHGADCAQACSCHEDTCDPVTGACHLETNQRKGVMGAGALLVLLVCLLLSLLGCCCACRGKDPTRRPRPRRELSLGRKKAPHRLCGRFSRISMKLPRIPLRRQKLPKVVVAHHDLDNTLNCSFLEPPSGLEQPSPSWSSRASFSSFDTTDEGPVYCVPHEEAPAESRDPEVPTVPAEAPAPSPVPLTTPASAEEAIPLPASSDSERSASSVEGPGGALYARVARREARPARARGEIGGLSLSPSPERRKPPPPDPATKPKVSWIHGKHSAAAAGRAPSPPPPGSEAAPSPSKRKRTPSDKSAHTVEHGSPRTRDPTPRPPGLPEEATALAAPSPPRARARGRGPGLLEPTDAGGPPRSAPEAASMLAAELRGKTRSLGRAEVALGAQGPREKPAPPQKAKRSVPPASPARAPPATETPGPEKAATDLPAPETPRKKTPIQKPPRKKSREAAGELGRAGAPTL
Chain of Alexa Fluor 488‐labelled MalBSA (P02769 25-607): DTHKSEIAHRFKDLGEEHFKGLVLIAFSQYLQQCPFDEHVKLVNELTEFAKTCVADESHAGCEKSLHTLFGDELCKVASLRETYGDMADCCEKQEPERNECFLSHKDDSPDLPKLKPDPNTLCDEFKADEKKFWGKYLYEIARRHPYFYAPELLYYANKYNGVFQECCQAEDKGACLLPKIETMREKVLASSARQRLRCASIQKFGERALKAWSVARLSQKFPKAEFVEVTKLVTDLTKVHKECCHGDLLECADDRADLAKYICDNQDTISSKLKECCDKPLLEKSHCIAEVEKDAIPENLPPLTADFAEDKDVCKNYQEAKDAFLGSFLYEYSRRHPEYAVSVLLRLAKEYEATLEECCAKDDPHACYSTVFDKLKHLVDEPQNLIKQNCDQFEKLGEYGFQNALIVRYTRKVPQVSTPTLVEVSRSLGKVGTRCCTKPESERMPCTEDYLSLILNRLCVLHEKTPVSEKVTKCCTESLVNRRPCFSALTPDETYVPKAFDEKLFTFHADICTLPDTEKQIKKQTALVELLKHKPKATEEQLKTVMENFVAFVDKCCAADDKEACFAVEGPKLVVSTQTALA

With “Alexa Fluor 488‐labelled MalBSA (from UniProt P02769 25-607)”, the increase in binding compared with nontransfected CHO cells in assay [1] is 40 to 50%.
In the case of “SREC‐II(44‐442), extracellular domain of scavenger receptor expressed by endothelial cells II (from UniProt Q96GP6 44-442) (domain or fragment)”, in assay [2], the Kd came to 0.2 µM, the koff was 0.00015 s⁻¹ and the kon came to 7800 M⁻¹ s⁻¹.
